From publication PMC10939263 come the findings set out here.

For one experiment, the target named is C1-fused SRC kinases. As to the kind of experiment: split reporter (BiFC, NanoBiT); Gaussia princeps luciferase complementation assay in human HEK293T cells; Gluc2 at the N terminus of SKAP1 or SKAP2 (N2), Gluc1 at the N terminus (N1) or C terminus (C1) of the SRC kinase; 100 ng plasmid pair, PEI; luminescence read in lysate one day later; normalized luminescence ratio (NLR), given relative to wild type or to SKAP2.

In a further experiment the target is LYN, C1-fused (UniProt P07948). Briefly: luciferase complementation assay (normalized luciferase ratio, NLR). As to conditions: HEK293T cells; one experiment; read off a plot.
The target of experiment [1] is FYN (isoform without exon 7), C1-fused, P06241-3. The experiment is described as above. Conditions: HEK293T cells; one experiment; read off a plot.
The target in a further experiment is LYN, N1-fused (UniProt P07948). The description is as above. Conditions: HEK293T cells; one experiment; read off a plot.
The target of the next experiment is BLK, N1-fused (UniProt P51451). Described as above. As to conditions: HEK293T cells; one experiment; read off a plot.
Experiment [2] concerns the target FYN (isoform without exon 7), N1-fused, P06241-3. The description is as above. Conditions: HEK293T cells; one experiment; read off a plot.
The target of another experiment is FRK, C1-fused (UniProt P42685). The experiment is described as above. As to conditions: HEK293T cells; one experiment; read off a plot.
In experiment [3] the target is HCK wild type, C1-fused, P08631-2. The description is as above. Conditions: HEK293T cells; one experiment; read off a plot.
A further experiment has as its target BLK, C1-fused (UniProt P51451). The description is as above. Conditions: HEK293T cells; one experiment; read off a plot.
The target in a further experiment is FGR, C1-fused (UniProt P09769). The description is as above. Conditions: HEK293T cells; one experiment; read off a plot.
For a further experiment, the target named is LCK wild type, C1-fused (UniProt P06239). The description is as above. As to conditions: HEK293T cells; one experiment; read off a plot.

On to “SRC kinase associated phosphoprotein 1 (SKAP1), wild type, N2-fused (from UniProt Q86WV1 1-359) (natural protein)”, for which the SKAP2 normalized NLR, mean over C1-fused SRC kinases (against wild type SKAP2) with C1-fused SRC kinases stood at 0.39.
Take “SRC kinase associated phosphoprotein 1 (SKAP1), wild type, N2-fused (from UniProt Q86WV1) DIM-”: the ratio to parent turned out to be 1.2 with LYN, C1-fused; 0.78 in [1]; 0.93 with LYN, N1-fused; 0.7 in the experiment with BLK, N1-fused; 0.66 in [2]; 0.64 with FRK, C1-fused. Moreover, the ratio to parent came out at 1.3 in [3]; 0.9 in the experiment with BLK, C1-fused; 1.3 with FGR, C1-fused; 0.68 with LCK wild type, C1-fused.
